Results published in publication PMC3296131.

Target: CNGB3N-EGFP-F (striped bass (Morone saxatilis)) (UniProt Q3I0N1)
Test: FRET or BRET

E FRET (FRET efficiency), mean: 0.3
Substance: CNG-modulin-HaloTag-TMR (from UniProt H8PG32 1-301) (natural protein)
